Where “and” joins values, the source holds several entries; their conditions need not be identical. Identical values can stand only once.
Key:
[1] = molecular target: the molecule itself; assay: two-photon scanning number and brightness (sN&B) fluctuation microscopy; live cultured rat hippocampal neurons, SNAP-tag labelled with Alexa488, with antagonist (400 nM LY341495) during labelling and imaging; numbers for 90-600 subunits/Veff
[2] = molecular target: the molecule itself; assay: two-photon scanning number and brightness (sN&B) fluctuation microscopy; live cultured rat hippocampal neurons, SNAP-tag labelled with Alexa488, with agonist and PAM (10 nM LY379268 + 3 μM BINA) during labelling and imaging; numbers for 90-600 subunits/Veff
[3] = molecular target: the molecule itself; assay: two-photon scanning number and brightness (sN&B) fluctuation microscopy; live cultured rat hippocampal neurons, SNAP-tag labelled with Alexa488, incubated with 150 μM CuP, bound to antagonist (400 nM LY341495); 90-600 subunits/Veff; apparent stoichiometry (lower with CuP)
[4] = molecular target: the molecule itself; assay: two-photon scanning number and brightness (sN&B) fluctuation microscopy; live cultured rat hippocampal neurons, SNAP-tag labelled with Alexa488, incubated with 150 μM CuP for the last 10 min of labelling, imaged in the absence of ligand; 90-600 subunits/Veff; apparent stoichiometry (lower with CuP)
[5] = molecular target: the molecule itself; assay: two-photon scanning number and brightness (sN&B) fluctuation microscopy; live cultured rat hippocampal neurons, cell-surface SNAP-tagged receptor labelled with Alexa488, imaging buffer pH 7.3, no ligand (basal); numbers for expression of 90-600 subunits/Veff; brightness normalised to monomeric Alexa488

B1: metabotropic glutamate receptor type 2 (mGlu2), wild type, with a SNAP-tag fused to the extracellular N-terminus (HA-ST-mGlu2) (receptor, rat, UniProt P31421 19-872, looked up)
chain: EGPAKKVLTLEGDLVLGGLFPVHQKGGPAEECGPVNEHRGIQRLEAMLFALDRINRDPHLLPGVRLGAHILDSCSKDTHALEQALDFVRASLSRGADGSRHICPDGSYATHSDAPTAVTGVIGGSYSDVSIQVANLLRLFQIPQISYASTSAKLSDKSRYDYFARTVPPDFFQAKAMAEILRFFNWTYVSTVASEGDYGETGIEAFELEARARNICVATSEKVGRAMSRAAFEGVVRALLQKPSARVAVLFTRSEDARELLAATQRLNASFTWVASDGWGALESVVAGSERAAEGAITIELASYPISDFASYFQSLDPWNNSRNPWFREFWEERFHCSFRQRDCAAHSLRAVPFEQESKIMFVVNAVYAMAHALHNMHRALCPNTTHLCDAMRPVNGRRLYKDFVLNVKFDAPFRPADTDDEVRFDRFGDGIGRYNIFTYLRAGSGRYRYQKVGYWAEGLTLDTSFIPWASPSAGPLPASRCSEPCLQNEVKSVQPGEVCCWLCIPCQPYEYRLDEFTCADCGLGYWPNASLTGCFELPQEYIRWGDAWAVGPVTIACLGALATLFVLGVFVRHNATPVVKASGRELCYILLGGVFLCYCMTFVFIAKPSTAVCTLRRLGLGTAFSVCYSALLTKTNRIARIFGGAREGAQRPRFISPASQVAICLALISGQLLIVAAWLVVEAPGTGKETAPERREVVTLRCNHRDASMLGSLAYNVLLIALCTLYAFKTRKCPENFNEAKFIGFTMYTTCIIWLAFLPIFYVTSSDYRVQTTTMCVSVSLSGSVVLGCLFAPKLHIILFQPQKNVVSHRAPTSRFGSAAPRASANLGQGSGSQFVPTVCNGREVVDSTTSSL
modifications: Alexa488 (BG-Alexa488) covalently on the SNAP-tag
notes: metabotropic glutamate receptor 2 (mGlu2), rat, wild type; HA-tag and SNAP-tag inserted just after the signal peptide; pRK5 plasmid, CMV promoter exchanged for the synapsin-1 promoter; also called mGlu2 receptor; wild type receptor; source: cultured rat hippocampal neurons, transfected (Lipofectamine 2000), on live cells; not shown: SNAP-tag, N-terminal, kept
[1]
  stoichiometry N: 3.7 subunits/complex
[2]
  stoichiometry N: 4 subunits/complex
[3]
  stoichiometry N: 3 subunits/complex
[4]
  stoichiometry N: 1.7 subunits/complex
[5]
  stoichiometry N: 2.2 subunits per complex and 1.66 subunits/complex

— paper PMC6039492, “Oligomerization of a G protein-coupled receptor in neurons controlled by its structural dynamics” (Scientific Reports, 2018)
